Experimental data taken from publication doi:10.1101/2023.07.25.550441.

Legend:
Assay in all cases: SPR
[1] = molecular target: Helarchaeia RING E3 (N-loopΔ), truncated E3 that lacks the N-loop (residues 1-19) (Helarchaeota)
[2] = molecular target: Helarchaeia full-length RING E3 (Helarchaeota)
[3] = molecular target: Asgard UEV (the UEV of UEV-Vps23 and UEV-Vps28), as tested against Asgard ubiquitin

Kd [1] [µM] | Kd [2] [µM] | Kd [3] [µM] | Substance
8140 | 257 |  | Helarchaeia UEV (residues 1-132) of UEV-Vps23 (domain or fragment)
 |  | 0.674 to 7.15 | Asgard ubiquitin, as tested against Asgard UEV
